Assay results reported in patent publication US20180021429A1, “ANTICANCER AGENTS OR ANTIMETASTATIC AGENTS USING FSTL1 AND COMBINATION DRUG THEREOF” (PHARMA FOODS INTERNATIONAL CO., LTD., priority 2015, published 2018).
Numbering of substitutions follows the chain as printed. “Also recorded” adds a separate entry of the source. Blank lines part the entries; values can stand above or below the molecule they belong to.

What was measured:
[1] = system: GFP-positive and Snail-positive B16-F10 tumor cells; experiment: Snail-positive B16-F10 bone metastasis model, intratumoral administration (Example 17); format: in vivo, mouse; details: intratumoral 10 mg/kg on day 7, assay day 14; FIG. 105A
Text: Three antibodies were comparatively analyzed for their antitumor effects and an immunosuppression-mitigating effect using bone metastasis models in which mouse melanoma cells B16-F10 forced to express Snail were subcutaneously and intravenously transplanted in C57BL/6N mice.
1. Experiment Group (n=5) • 1. No treatment • 2. Control IgG (anti-DNP) • 3. Anti-FSTL1 Clone #6-55 • 4. Anti-FSTL1 Clone #7-34 • 5. Anti-FSTL1 Clone #8-1
• Day 0: transplantation of GFP-positive and Snail-positive B16-F10 tumor cells (5×10^5 cells subcutaneously & 1×10^5 cells intravenously) • Day 7: intratumoral administration of the antibody (200 μg/0.1 mL/tumor) • Day 14: various assays (with a focus on flow cytometry analysis)
• Effects on the growth of subcutaneous tumor (calculation of tumor volume by tumor size measurement): measured 7, 11, and 14 days after tumor implantation (FIG. 105C) • Effects on bone metastasis (GFP-positive tumor cells in bone marrow) (FIG. 105A) • Effects on the expansion of mesenchymal stem cells (CD45− negative cells in bone marrow and in the spleen) (FIGS. 105B and 105D) • Effects on the expansion of immunosuppressive Treg cells (CD4-positive and Foxp3-positive cells in bone marrow or the spleen) (FIG. 105D) • Other immunosuppressive properties (FIG. 105D)
In order to evaluate in vivo antibody activity, antitumor effects and immunosuppression-mitigating effects were comparatively analyzed using bone metastasis models in which mouse melanoma cells (B16-F10) forced to express Snail were subcutaneously and intravenously transplanted in C57BL/6N mice. […]
It is known that when Snail-positive tumor cells are subcutaneously or intravenously transplanted to mice, the tumor metastasizes preferentially to bone marrow in addition to various organs, and this incurs the expansion of mesenchymal stem cells (MSCs) originating in the bone marrow, thereby systemically and strongly suppressing the induction of antitumor immunity (Cancer Research 73: 6185, 2013). […] The percentage (%) of CD45^− cells in the bone marrow cells was analyzed by flow cytometry.

mouse FSTL1 = molecular target: T1, mouse FSTL1 (Mus musculus, UniProt Q62356); experiment: ELISA, binding activity of purified antibody against mouse FSTL1 (Example 2)
T1 construct: AAA linker + 10xHis (C); made in house; host or cells: Expi293 (transient expression; purified from culture supernatant on HisPur Cobalt Resin)
T1 sequence (Q62356 with tags, fused parts or gaps): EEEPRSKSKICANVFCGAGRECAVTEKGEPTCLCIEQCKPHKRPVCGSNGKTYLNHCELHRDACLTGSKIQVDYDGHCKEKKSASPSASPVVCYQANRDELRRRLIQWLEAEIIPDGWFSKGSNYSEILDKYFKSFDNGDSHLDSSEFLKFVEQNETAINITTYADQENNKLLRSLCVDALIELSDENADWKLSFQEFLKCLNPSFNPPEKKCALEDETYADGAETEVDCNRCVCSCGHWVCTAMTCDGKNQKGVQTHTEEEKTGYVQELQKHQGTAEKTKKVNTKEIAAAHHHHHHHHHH
Protocol: (§1) The reactivity of the obtained antibody clones described above with FSTL1 was evaluated by ELISA under the following conditions.
(§2) Antibodies used: anti-dinitrophenyl (DNP) antibody (negative control), #5-2, #5-3, #5-8, #5-10, #5-43, #6-55, and #7-34
FIGS. 64 and 65 show results of evaluating binding activity under the condition of Table 3 as to clones differing in screening and antibody purification timings.

human FSTL1 = molecular target: T2, human FSTL1 (Homo sapiens, UniProt Q12841); experiment: ELISA binding activity of purified antibody against human FSTL1 (Example 2); details: FIG. 1B/31B
T2 construct: AAA linker + 10xHis (C); made in house; host or cells: Expi293 (transient expression; purified from culture supernatant on HisPur Cobalt Resin)
T2 sequence (Q12841 with tags, fused parts or gaps): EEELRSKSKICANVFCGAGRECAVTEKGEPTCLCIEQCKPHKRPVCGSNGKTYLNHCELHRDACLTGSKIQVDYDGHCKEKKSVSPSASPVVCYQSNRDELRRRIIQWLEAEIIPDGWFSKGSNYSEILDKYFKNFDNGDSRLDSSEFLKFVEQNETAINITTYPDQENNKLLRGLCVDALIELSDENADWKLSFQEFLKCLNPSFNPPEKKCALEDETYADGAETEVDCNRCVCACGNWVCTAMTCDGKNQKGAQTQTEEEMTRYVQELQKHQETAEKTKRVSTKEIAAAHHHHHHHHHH
Protocol: as §1
(Table 2 ELISA conditions for binding activity evaluation of purified antibody) Antibodies used: anti-dinitrophenyl (DNP) antibody (negative control), #5-2, #5-3, #5-8, #5-10, #5-43, #6-55, and #7-34
FIGS. 2 and 3 show results of evaluating binding activity under the condition of Table 3 as to clones differing in screening and antibody purification timings.
as §2
FIGS. 32 and 33 show results of evaluating binding activity under the condition of Table 3 as to clones differing in screening and antibody purification timings.

[2] = cross reactivity test, antibody diluted from 1000 ng/ml
[3] = antibody diluted from 100 ng/ml

B1: #6-55: chicken-mouse chimeric anti-FSTL1 antibody clone; variable regions SEQ ID NO: 783 (light), 785 (heavy) (antibody, V domains shown)
VH: AVTLDESGGGLQTPGGALSLVCKGSGFTFTSVTMQWVRQAPGKGLEWVASVCSGSSTYYAPAVKGRATISRDNGQSTVRLQLSNLRPEDTGTYYCAKIAGRARWSCTSAAYNIDAWGHGTEVIVSS
VL: ASTQPSSVSAIPGETVKITCSGGGNNYGWYQQRSPGSAPVTVIYYNDNRPSNIPSRFSGSTSGSTSTLTITGVQADDEAIYYCGSWDSNTDSGIFGAGTTLTVL
modifications: mouse constant regions
bone metastasis (GFP-positive tumor cells in bone marrow) [1]: suppressed
binding activity against mouse FSTL1 (mouse FSTL1; [2]): specific and equivalently strong binding activity
binding activity against human FSTL1 (human FSTL1): specific and equivalently strong binding activity

B2: #7-34: chicken-mouse chimeric anti-FSTL1 antibody clone; variable regions SEQ ID NO: 787 (light), 789 (heavy) (antibody, V domains shown)
VH: AVTLDESGGGLQTPGGGLSLVCKASGFTFSSVTMQWVRQAPGKGLEWVASICSGSSTYYGPAVKGRATISRDNGQNTVRLQLNNLRAEDTATYYCAKIVGRGRWSCTSAAYNIDAWGHGTEVIVSS
VL: B1 VL with I11N, R33K, D47N, D76E, I80V, W86Y, D87E, S88G, N89S
modifications: mouse constant regions
bone metastasis (GFP-positive tumor cells in bone marrow) [1]: no suppressive effect
binding activity against mouse FSTL1 (mouse FSTL1; [2]): specific and equivalently strong binding activity
binding activity against human FSTL1 (human FSTL1): specific and equivalently strong binding activity

binding activity against mouse FSTL1 (mouse FSTL1; [3]): exhibited no binding activity
B3: #8-4: chicken-mouse chimeric anti-FSTL1 antibody clone; variable regions SEQ ID NO: 795 (light), 797 (heavy) (antibody, V domains shown)
VH: AVTLDESGGGLQTPGGGLSLVCKGSGFTLSSFNMFWVRQAPGKGLEWVAGVGKDGGTAYGAAVDGRATISRDSGQSTVRLQLNNLRAEDTGTYFCAKAAGGCSYSWCGAYVGDLDAWGHGTEVIVSS
VL: ASSQPSSVSANPGETVKITCSGGSGYYYGWYQQKSPGSAPVTVIYNNDNKPSDIPSRFSGSKSGSTGTLTITGVQVEDEAVYFCGGYDNSGTGIFGAGTTLTVL
modifications: mouse constant regions

binding activity against mouse FSTL1 (mouse FSTL1; [3]): exhibited no binding activity
B4: #5-8: chicken-mouse chimeric anti-FSTL1 antibody clone; variable regions SEQ ID NO: 771 (light), 773 (heavy) (antibody, V domains shown)
VH: AVTLDESGGGLQTPGGGLSLVCKGSGFTFSSFNMFWVRQAPGKGLEWVAGIGKDGVPKYGTAVDGRATISKDNGQSTMRLQLNNLRAEDTGTYFCAKAAGGCSYDWCGIYTGDIDTWGHGTEVIVSS
VL: ASTQPSSVSANPGEAVKITCSGGSGSYYGWYQQKSPGSAPVTVIYNNNQRPSDIPSRFSGSKSGSTATLTITGVQAEDEAVYFCGGYDSSTGHGGIFGAGTTLTVL
modifications: mouse constant regions

B5: #8-1: chicken-mouse chimeric anti-FSTL1 antibody clone; variable regions SEQ ID NO: 791 (light), 793 (heavy) (antibody, V domains shown)
VH: B4 VH with G17A, T61A, T111A
VL: B4 VL with T91S
modifications: mouse constant regions
bone metastasis (GFP-positive tumor cells in bone marrow) [1]: suppressed
binding activity against mouse FSTL1 (mouse FSTL1; [3]): slightly exhibited binding activity; also recorded: very slightly exhibited binding activity
